Our source for the amyloid nucleation score values is the supplement of paper PMC12042874.

± gives the uncertainty stated by the source.

The nature of this series: amyloid nucleation score (Sup35N fusion, yeast selection) (log enrichment); library NNK3; higher = more nucleation; inactive = no reads after selection. In outline:
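The nucleation score is a DiMSum log enrichment of output over input reads, centred on the mode score of non-aggregating sequences. Sequences under 100 input reads were excluded, and reads came from Illumina sequencing of plasmid inserts. Psi-negative yeast expressing Sup35N fused to peptides of 20 random codons were induced with 100 μM copper sulfate for 24 hours and grown 7 days at 30°C on medium lacking adenine and uracil. Random libraries had three technical output replicates.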
Regarding WMVYDSLILFHDVRRSYLPM, the amyloid nucleation score entry is “inactive”.

On to FNSFCAYNTRHYYVVLGGIV, for which the amyloid nucleation score turned out to be 1.04 ± 0.13.

As to NTCKRYGEVI, the amyloid nucleation score was 2.2 ± 0.058.

Turning to RGTMLLRNISIVCQLYPLST, the amyloid nucleation score result is “inactive”.

As for FSSCDHRFWTFLIKFMLLAL, the amyloid nucleation score entry was “inactive”.

Regarding KGRMQVEWDFGISAYCGMML, the amyloid nucleation score was -0.431 ± 1.1.

On to TEQRMQ, for which the amyloid nucleation score result is “inactive”.

Turning to SLVIQKSFRGDGLRVRHGLQ, the amyloid nucleation score result was “inactive”.

For NEALSERQYRAMLTETLVAG, the amyloid nucleation score result was “inactive”.

For FSLSQLLVCFWADSRSMKWT, the amyloid nucleation score result was “inactive”.

Turning to VDTILSNKVYVRAPPKRGSK, the amyloid nucleation score result was “inactive”.

SYFTVHHSCLGHTTQHVMLS: the amyloid nucleation score result is “inactive”.

On to FHYCCYITAAQYYDACCVVP, for which the amyloid nucleation score result was “inactive”.

Regarding FYEVRVRRVRVHVKEQPLLH, the amyloid nucleation score is -0.406 ± 1.3.

In the case of ASNCDPMIHFLMHKVYKSFY, the amyloid nucleation score was -0.103 ± 0.64.

On to ICFVSCKLFFVDSLCFCFAG, for which the amyloid nucleation score result is “inactive”.

For MSPLGTCYRILKLDYCKYAV, the amyloid nucleation score was -0.328 ± 0.55.

Turning to KMFWLVTHRLN, the amyloid nucleation score entry was “inactive”.

For the substance FSEASPLYVTSPRQSSLPRP, the amyloid nucleation score entry was “inactive”.

Take PDLDYFMIHA: the amyloid nucleation score result is “inactive”.

TPMWMGT: the amyloid nucleation score entry is “inactive”.

Consider LNTPPQVSMGSEGLSFNMSF, for which the amyloid nucleation score entry is “inactive”.

On to SREFSGCNNV, for which the amyloid nucleation score result is “inactive”.

In turn, VVLCVLEYYKFF showed an amyloid nucleation score of 0.848 ± 0.25.

For the substance LNATKSDCHSLLI, the amyloid nucleation score result is “inactive”.

In the case of VGNEECIYQIRFFLRLSGSL, the amyloid nucleation score result is “inactive”.

In the case of NQARHRSSIRRCG, the amyloid nucleation score result is “inactive”.

For LENGVHVRRSIEF, the amyloid nucleation score result is “inactive”.

As to SRCRMIGMVISWNG, the amyloid nucleation score entry is “inactive”.

For STTVLQQSLLKNKNLSWDAS, the amyloid nucleation score entry was “inactive”.

As to VDLWYIFGPSPYATCFVLLV, the amyloid nucleation score entry is “inactive”.

Regarding PYFFSLRNPRI, the amyloid nucleation score result was “inactive”.

For PSVHCMWCPRQPDVFPRWIV, the amyloid nucleation score result is “inactive”.

In the case of YIYLTQGTARNIDYT, the amyloid nucleation score worked out at 0.047 ± 0.43.

Consider HFSKHTVTNRPYDVHNLGKC, for which the amyloid nucleation score result is “inactive”.

LCFNCGVFCFFFRVGETTNW: the amyloid nucleation score is 2.84 ± 0.056.

As for HVVHYDMFHDGLSLWDQEAR, the amyloid nucleation score entry is “inactive”.

For VVNIRDATWAFKLLCGEAHV, the amyloid nucleation score result was “inactive”.

For the substance YSIVRGWMDARDLHMLHLEI, the amyloid nucleation score entry was “inactive”.

As for MYRCNVGLLGVFPRCNPYDA, the amyloid nucleation score result was “inactive”.

For CNFLGSRLGYFGNYIFI, the amyloid nucleation score result was “inactive”.

On to NMRKLVCDMEIWMIFCAKSN, for which the amyloid nucleation score came out at 0.505 ± 0.28.

As for CMGMCELFNTWCYEGKTPIS, the amyloid nucleation score entry is “inactive”.

As to WVLDSERQMANSLWSGGGLA, the amyloid nucleation score entry is “inactive”.

In turn, TSVNVWFPFLGVREGFGCSP gave an amyloid nucleation score of 1.37 ± 0.15.

Consider AYLGLLNSAKFFKYLRSYAW, for which the amyloid nucleation score result is “inactive”.

Consider EMYGWINMIQWNLLCVSEII, for which the amyloid nucleation score entry is “inactive”.

For the substance TGYSYFYGWMVTYATQSKRV, the amyloid nucleation score result is “inactive”.

FHDVMKGGI: the amyloid nucleation score result is “inactive”.

For RRTVYRHF, the amyloid nucleation score result was “inactive”.

Consider WRTSMVASILRVRWEYLKWK, for which the amyloid nucleation score result was “inactive”.

Consider DTGFCYKFNYIPVDVIICIC, for which the amyloid nucleation score came out at 1.32 ± 0.12.

Regarding TECMGGGSVWTQW, the amyloid nucleation score entry is “inactive”.

As for LISTNKRHTAWRYCRGIPLE, the amyloid nucleation score result was “inactive”.

WVKNLVFEGHVGA: the amyloid nucleation score result is “inactive”.

For the substance YLFSSMLVILTCFRT, the amyloid nucleation score entry is “inactive”.

With WWTLKPGESVVRGLRVCGAP, the amyloid nucleation score entry was “inactive”.

Consider LDCTHSTLFWWRRFVSAYSL, for which the amyloid nucleation score entry is “inactive”.

Turning to ISKSDLSLFN, the amyloid nucleation score result is “inactive”.

As to LLLYWRRTMVALRCTYFGLT, the amyloid nucleation score entry is “inactive”.

On to MCGDCICVVSVMLAHAPKCS, for which the amyloid nucleation score result was “inactive”.

With SEPIWYFRGFFCGLGLIWGW, the amyloid nucleation score is -0.389 ± 0.98.

For the substance FFREYTSSRQMNICYLSFHG, the amyloid nucleation score result is “inactive”.

Turning to MFRWLAQWALLTTTSRPASQ, the amyloid nucleation score result was “inactive”.

Turning to ELLFIDGWKST, the amyloid nucleation score entry is “inactive”.

For NMSPGEP, the amyloid nucleation score result was “inactive”.

Regarding KRGLTGVSLVLDETVAVPSD, the amyloid nucleation score entry is “inactive”.

Consider YSYAQMSLMEQQMLIRT, for which the amyloid nucleation score result was “inactive”.

Take NSFSLGNSLNPYKAAPRRML: the amyloid nucleation score entry is “inactive”.

Take YSRDSGCRIKVVPALTVRGR: the amyloid nucleation score result is “inactive”.

For YPTWKGIFNRWAEYCIRLPV, the amyloid nucleation score was -0.266 ± 0.36.

With ECWKVGKGLRSE, the amyloid nucleation score result was “inactive”.

With VNSRCI, the amyloid nucleation score result is “inactive”.

Take QVVTSYGGSAVEDITAML: the amyloid nucleation score entry was “inactive”.

On to HRSINCWAYVRL, for which the amyloid nucleation score result was “inactive”.

On to TMKIMFVEPWKCRAAFQL, for which the amyloid nucleation score result is “inactive”.

Regarding IPSIWMGISRK, the amyloid nucleation score result was “inactive”.

Turning to RDEASLSYMSPCRYDYCNCF, the amyloid nucleation score worked out at 0.003 ± 1.

As to PLQDL, the amyloid nucleation score entry is “inactive”.

As for HGWYSVFADSRRYCKRVRYT, the amyloid nucleation score result is “inactive”.

Turning to PWRRDKSGVVLSWDAISFAW, the amyloid nucleation score entry is “inactive”.

Regarding LGSTKSPLSCVY, the amyloid nucleation score entry is “inactive”.

GMTEGYYLESVGGSKFDNVV: the amyloid nucleation score entry is “inactive”.

For SSSTGAFGDSGGR, the amyloid nucleation score entry is “inactive”.

As for CCSMARAITISGNVELKFD, the amyloid nucleation score entry was “inactive”.

Substance TVIKPWLLICCDLFREVGFA displayed an amyloid nucleation score of 1.12 ± 0.14.

QYYFSYSINSRLITCALVQG displayed an amyloid nucleation score of 0.214 ± 0.37.

As for GGKLGTLCSNSRYGSVHMGV, the amyloid nucleation score result was “inactive”.

Consider YFANTVRTFLVLLQAFVLVV, for which the amyloid nucleation score result was “inactive”.

For TWWWDTKLVRRPCSRGWVTC, the amyloid nucleation score entry is “inactive”.

Regarding RCGEDNLQGSLSTSTVGNLV, the amyloid nucleation score result was “inactive”.

In the case of FCSLIKYSQNYYNPLAHTVL, the amyloid nucleation score result was “inactive”.

As to PIPTKLLVLKRQSTMHLDRF, the amyloid nucleation score entry was “inactive”.

Consider SFLGLMSMEELITS, for which the amyloid nucleation score entry was “inactive”.

Turning to VLVVCSLSAC, the amyloid nucleation score entry is “inactive”.

As for LKNSL, the amyloid nucleation score entry is “inactive”.

As for TSLGFSLSSSTDAFVEKFEG, the amyloid nucleation score amounted to 1.56 ± 0.077.

For the substance YRIYFLRCPDLTRMFNFVEL, the amyloid nucleation score result was “inactive”.

Take WYWSLA: the amyloid nucleation score is -0.174 ± 0.59.

As for SYSDRGCVGMNVLSVFEGWD, the amyloid nucleation score entry was “inactive”.

Regarding IEQRLRLKSLSYFFINDVKI, the amyloid nucleation score entry is “inactive”.

With YDYTRCLLYFVALRYQGGNS, the amyloid nucleation score result is “inactive”.

On to VHLYADPDVMQYNRWDVVGY, for which the amyloid nucleation score result was “inactive”.

As for FTPLCSNVAGRNMEQYCS, the amyloid nucleation score result is “inactive”.

In the case of KVLLWPSWFK, the amyloid nucleation score entry is “inactive”.

DAGLRLLYSSLTGRL: the amyloid nucleation score result is “inactive”.

Regarding IKVTIYPRLTRSNATFMPSM, the amyloid nucleation score entry was “inactive”.

In the case of CSAIFCVVRGFRRVK, the amyloid nucleation score result is “inactive”.

As to CASCEVFMLR, the amyloid nucleation score result was “inactive”.

For the substance SGLIQNTRR, the amyloid nucleation score was -0.428 ± 1.1.

Turning to KNQNMMMSSQFSMYCWFRLT, the amyloid nucleation score result was “inactive”.

On to QVCYFYIIVLVLD, for which the amyloid nucleation score result is “inactive”.

On to SKCVYAVWCACVFARF, for which the amyloid nucleation score result is “inactive”.

MYQSLAYFASDLRIHWHMRK: the amyloid nucleation score amounted to 0.729 ± 0.14.

As for DSCKIYGG, the amyloid nucleation score entry is “inactive”.

As to NNGFGSWGV, the amyloid nucleation score result was “inactive”.

As to IQSSYSMYIEWL, the amyloid nucleation score entry is “inactive”.

Turning to LIIGCGIFSLNS, the amyloid nucleation score is 1.94 ± 0.068.

Turning to FDEDRREV, the amyloid nucleation score result is “inactive”.

As for KPRSC, the amyloid nucleation score entry is “inactive”.

Turning to CYNWHMFTEYCCSSSQARSM, the amyloid nucleation score amounted to 0.195 ± 0.57.

As to NLSRLKRFYIANSR, the amyloid nucleation score entry is “inactive”.

For YLWEYSEMLSTDI, the amyloid nucleation score result is “inactive”.

With VLASSKGICPMPSTSEFSFH, the amyloid nucleation score entry is “inactive”.

With WYVYTNIRNVSYDIFDNKKF, the amyloid nucleation score amounted to 1.49 ± 0.11.

FGTEDK: the amyloid nucleation score result was “inactive”.

YDSVNLSLVLHSKRHYAYCA: the amyloid nucleation score entry was “inactive”.

SSNRGFIIMFEFLASWGFLA: the amyloid nucleation score result was “inactive”.

With HQPGSRLI, the amyloid nucleation score result was “inactive”.

With SVKLLSVTSCDGGRAWWQGG, the amyloid nucleation score result is “inactive”.

Take NTPNCYFVLRRVILMRLKLS: the amyloid nucleation score entry was “inactive”.
